Assay results reported in the RNAGym collection of RNA variant scans (doi:10.1093/molbev/msab373).

B1: Azoarcus group I ribozyme (parent)
chain: GUGCCUUGCGCCGGGAAACCACGCAAGGGAUGGUGUCAAAUUCGGCGAAACCUAAGCGCCCGCCCGGGCGUAUGGCAACGCCGAGCCAAGCUUCGGCGCCUGCGCCGAUGAAGGUGUAGAGACUAGACGGCACCCACCUAAGGCAAACGCUAUGGUGAAGGCAUAGUCCAGGGAGUGGCGAAAGUCACACAAACCGG

Variants of: B1
Test: reverse-splicing fitness (ratio to wild type); higher = more active; in vitro selection; Mg2+ level not given
In short: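 An in vitro group I ribozyme library with randomized positions was T7-transcribed and gel-purified. In triplicate, 10 pmol RNA in EPPS pH 7.5 was reacted with 50 pmoles of a 30-nt RNA substrate for 1 h at 37 °C across several added MgCl2 levels (1–48 mM), then stopped with EDTA. Products were reverse transcribed from a substrate-complementary primer, PCR-amplified and sequenced (HiSeq 4000). Fitness is a variant's read proportion after selection over that before, normalised to wild type.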

Row | Variant | reverse-splicing fitness
1 | C82A A111U A145C C169A | 0.00733
2 | C82A A111U A145C C169U | 0.0123
3 | C82A A111U A145C C169G | 0.00993
4 | C82A A111U A145G C150G C169U U176C | 0.0142
5 | C82A A111U A145G C150G C169U U176G | 0.00787
6 | C82A A111U A145G C150G C169U U176A | 0.0134
7 | C82A A111U A120U A145U C150G U176C | 0.00545
8 | C82A A111U A120U A145U C150G U176A | 0.00344
9 | C82A A111U A120U A145U C150G U176G | 0.00272
10 | C82A A111U A145C C150G C169A U176G | 0.00755
11 | C82A A111U A145C C150G C169A U176C | 0.0076
12 | C82A A111U A145C C150G C169A U176A | 0.0086
13 | C82A A111U A120U C150G U176A | 0.00499
14 | C82A A111U A120U C150G U176G | 0.00265
15 | C82A A111U A120U C150G U176C | 0.00606
16 | C82A A111U A145G C150A C169A U176A | 0.0197
17 | C82A A111U A145G C150A C169A U176G | 0.00853
18 | C82A A111U A145G C150A C169A U176C | 0.0242
19 | C82A A111U A120U A145U C150A C169A U176G | 0.00212
20 | C82A A111U A120U A145U C150A C169A U176C | 0.00269
21 | C82A A111U A120U A145U C150A C169A U176A | 0.00303

Row | Variant | reverse-splicing fitness
22 | C82A A111U A120U A145U C169G U176A | 0.00291
23 | C82A A111U A120U A145U C169G U176G | 0.00199
24 | C82A A111U A120U A145U C169G U176C | 0.00323
25 | C82A A111U A120U A145G C150U U176A | 0.01
26 | C82A A111U A120U A145G C150U U176C | 0.0125
27 | C82A A111U A120U A145G C150U U176G | 0.00393
28 | C82A A111U A120U A145C C150U C169G | 0.0029
29 | C82A A111U A120U A145C C150U C169U | 0.00328
30 | C82A A111U A120U A145C C150U C169A | 0.00277
31 | C82A A111U A120U C169U | 0.00502
32 | C82A A111U A120U C169A | 0.00416
33 | C82A A111U A120U C169G | 0.00434
34 | C82A A111U A120U A145G C169A U176G | 0.00239
35 | C82A A111U A120U A145G C169A U176A | 0.00409
36 | C82A A111U A120U A145G C169A U176C | 0.00356
37 | C82A A111U A120U A145G C150G C169G U176A | 0.00885
38 | C82A A111U A120U A145G C150G C169G U176C | 0.00639
39 | C82A A111U A120U A145G C150G C169G U176G | 0.00413
40 | C82A A111U A145C C150A C169U U176C | 0.0116
41 | C82A A111U A145C C150A C169U U176G | 0.00705
42 | C82A A111U A145C C150A C169U U176A | 0.0155

Row | Variant | reverse-splicing fitness
43 | C82A A111U A120U A145C C169U | 0.00338
44 | C82A A111U A120U A145C C169G | 0.00342
45 | C82A A111U A120U A145C C169A | 0.00224
46 | C82A A111U A120U C150A C169G U176A | 0.00956
47 | C82A A111U A120U C150A C169G U176C | 0.00511
48 | C82A A111U A120U C150A C169G U176G | 0.00222
49 | C82A A111U A120U A145C C150G U176G | 0.00265
50 | C82A A111U A145C C150G U176G | 0.00428
51 | C82A A111U A145C C150G U176C | 0.0163
52 | C82A A111U A145C C150G U176A | 0.0104
53 | C82A A111U A120U A145G C150A C169A U176C | 0.00627
54 | C82A A111U A120U A145G C150A C169A U176G | 0.00392
55 | C82A A111U A120U A145G C150A C169A U176A | 0.0108
56 | C82A A111U A145C C150G C169G U176C | 0.00829
57 | C82A A111U A145C C150G C169G U176G | 0.00637
58 | C82A A111U A145C C150G C169G U176A | 0.00985
59 | C82A A111U A120U A145C C169A U176G | 0.00209
60 | C82A A111U A120U A145C C169A U176A | 0.00304
61 | C82A A111U A120U A145C C169A U176C | 0.00227
62 | C82A A111U A145C C150G C169U U176G | 0.00633
63 | C82A A111U A145C C150G C169U U176C | 0.0103

Row | Variant | reverse-splicing fitness
64 | C82A A111U A145C C150G C169U U176A | 0.00896
65 | C82A A111U A145G C150G C169G U176G | 0.00649
66 | C82A A111U A145G C150G C169G U176A | 0.0117
67 | C82A A111U A145G C150G C169G U176C | 0.0133
68 | C82A A111U A120U A145G C150G U176A | 0.00697
69 | C82A A111U A120U A145G C150G U176G | 0.00434
70 | C82A A111U A120U A145G C150G U176C | 0.00894
71 | C82A A111U A120U C150G C169U U176G | 0.00327
72 | C82A A111U A120U C150G C169U U176C | 0.00451
73 | C82A A111U A120U C150G C169U U176A | 0.00341
74 | C82A A111U A120U C150U C169A U176G | 0.00226
75 | C82A A111U A120U C150U C169A U176C | 0.00344
76 | C82A A111U A120U C150U C169A U176A | 0.00575
77 | C82A A111U A145C C150A C169A | 0.00947
78 | C82A A111U A145C C150A C169G | 0.00849
79 | C82A A111U A145C C150A C169U | 0.011
80 | C82A A111U A120U A145U C150U | 0.0173
81 | C82A A111U A120U A145U C150G | 0.00631
82 | C82A A111U A120U A145U C150A | 0.00619
83 | C82A A111U A120U C150U C169U | 0.00507
84 | C82A A111U A120U C150U C169A | 0.00594
